Measurements published in the supplement of paper PMC10724198.
± gives the standard deviation of the averaged measurements.

Legend:
[1] = system: Saccharomyces cerevisiae; assay: protein stability index of tFT-peptide fusion (C-terminal peptide) (PSI (0-1 scale)); higher = more stable (slower turnover)
Method: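 MPS profiling in S. cerevisiae of the tFT-X12 degron library: putative degron peptides plus stable controls, 12 aa, fused to the C-terminus of a sfGFP-mCherry timer. Cells are FACS-sorted into 8 mCherry/sfGFP bins and deep-sequenced. PSI runs from 0 (unstable) to 1 (stable). Backgrounds are wild type, das1Δ and doa10Δ at 30 °C, and wild type, das1Δ, cdc34-1 and cdc53-1 at 37 °C; 2-3 technical replicates each.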

[2] = system: Saccharomyces cerevisiae; assay: as above; conditions: genetic background: wild type; temperature: 30 C
[3] = genetic background: cdc34-1, temperature: 37 C
[4] = genetic background: cdc53-1, temperature: 37 C
[5] = genetic background: das1 deletion, temperature: 30 C
[6] = genetic background: das1 deletion, temperature: 37 C
[7] = genetic background: doa10 deletion, temperature: 30 C
[8] = genetic background: wild type, temperature: 30 C
[9] = genetic background: wild type, temperature: 37 C
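Also: PSI is a weighted mean of sequencing reads over stability bins, variants kept only with over 10 reads, mCherry proximal and sfGFP distal, peptide attached via GGGS linker.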

Row | Sequence | protein stability index [1, 3] | protein stability index [1, 4] | protein stability index [1, 5] | protein stability index [1, 6] | protein stability index [1, 7] | protein stability index [1, 8] | protein stability index [1, 9] | protein stability index [2]
1 | GDINRNTRYLEK | 0.6705 ± 0.0048 | 0.7508 ± 0.0049 | 0.648 ± 0.029 | 0.698 ± 0.0092 | 0.649 ± 0.0063 | 0.6339 ± 0.0032 | 0.702 ± 0.024 | 0.556 ± 0.18
2 | GFGRRGQFGGTG | 0.86 ± 0.079 | 0.863 ± 0.016 | 0.607 ± 0.019 | 0.801 ± 0.048 | 0.542 ± 0.039 | 0.567 ± 0.04 | 0.835 ± 0.059 | 0.574 ± 0.14
3 | GFRVTTCASWIC | 0.557 ± 0.016 | 0.734 ± 0.011 | 0.612 ± 0.015 | 0.729 ± 0.015 | 0.143 ± 0.012 | 0.15 ± 0.027 | 0.191 ± 0.012 | 0.177 ± 0.02
4 | GFSEGRLTIPVY | 0.453 ± 0.025 | 0.4949 ± 0.0041 | 0.343 ± 0.04 | 0.5097 ± 0.0018 | 0.2949 ± 0.0027 | 0.345 ± 0.06 | 0.476 ± 0.01 | 0.455 ± 0.047
5 | GFVISSCRLFIL | 0.581 ± 0.052 | 0.632 ± 0.0072 | 0.59 ± 0.022 | 0.669 ± 0.011 | 0.272 ± 0.021 | 0.264 ± 0.024 | 0.3989 ± 0.0031 | 0.337 ± 0.044
6 | GFVLLCFCCRTW | 0.28 ± 0.01 | 0.421 ± 0.052 | 0.287 ± 0.032 | 0.4828 ± 0.0044 | 0.2477 ± 0.00056 | 0.277 ± 0.035 | 0.426 ± 0.03 | 0.393 ± 0.004
7 | GGCYAGVAMRLI | 0.653 ± 0.02 | 0.729 ± 0.026 | 0.644 ± 0.021 | 0.714 ± 0.042 | 0.632 ± 0.014 | 0.62 ± 0.027 | 0.681 ± 0.025 | 0.76 ± 0.015
8 | GGGVGVVWVRLG | 0.429 ± 0.03 | 0.678 ± 0.035 | 0.618 ± 0.013 | 0.72 ± 0.024 | 0.0905 ± 0.017 | 0.114 ± 0.014 | 0.137 ± 0.017 | 0.256 ± 0.028
9 | GGLFRWCVWRIV | 0.413 ± 0.02 | 0.5292 ± 0.0032 | 0.545 ± 0.025 | 0.6377 ± 0.0015 | 0.102 ± 0.016 | 0.102 ± 0.0098 | 0.172 ± 0.025 | 0.145 ± 0.0086
10 | GGSWVRCLRTMG | 0.628 ± 0.019 | 0.71 ± 0.024 | 0.614 ± 0.016 | 0.7097 ± 0.0014 | 0.17 ± 0.0073 | 0.158 ± 0.028 | 0.399 ± 0.032 | 0.312 ± 0.029
11 | GGVWLSVVSWVG | 0.156 ± 0.0086 | 0.238 ± 0.03 | 0.0995 ± 0.024 | 0.256 ± 0.012 | 0.0676 ± 0.00079 | 0.0976 ± 0.011 | 0.244 ± 0.0053 | 0.167 ± 0.021
12 | GGWSLFCIVVVV | 0.111 ± 0.039 | 0.171 ± 0.0092 | 0.179 ± 0.029 | 0.306 ± 0.0031 | 0.167 ± 0.013 | 0.173 ± 0.035 | 0.253 ± 0.0092 | 0.268 ± 0.074
13 | GIFVWWFWGCCG | 0.503 ± 0.016 | 0.585 ± 0.051 | 0.38 ± 0.023 | 0.567 ± 0.03 | 0.293 ± 0.02 | 0.321 ± 0.017 | 0.5283 ± 0.0019 | 0.399 ± 0.01
14 | GILILRLILCLF | 0.251 ± 0.027 | 0.302 ± 0.047 | 0.248 ± 0.033 | 0.385 ± 0.023 | 0.171 ± 0.0058 | 0.189 ± 0.018 | 0.24 ± 0.012 | 0.227 ± 0.0044
15 | GILLLLISRVVF | 0.278 ± 0.032 | 0.373 ± 0.025 | 0.229 ± 0.047 | 0.469 ± 0.0056 | 0.197 ± 0.039 | 0.227 ± 0.021 | 0.413 ± 0.0093 | 0.371 ± 0.011
16 | GILVVAASICYV | 0.451 ± 0.021 | 0.48 ± 0.02 | 0.355 ± 0.031 | 0.52243 ± 0.00038 | 0.342 ± 0.0088 | 0.359 ± 0.017 | 0.488 ± 0.015 | 0.447 ± 0.018
17 | GKKKREWKKNRI | 0.6893 ± 0.00074 | 0.733 ± 0.0097 | 0.645 ± 0.022 | 0.711 ± 0.013 | 0.217 ± 0.026 | 0.257 ± 0.041 | 0.552 ± 0.0071 | 0.382 ± 0.021
18 | GLCLFLIGVFSV | 0.224 ± 0.0031 | 0.313 ± 0.06 | 0.246 ± 0.039 | 0.439 ± 0.022 | 0.2104 ± 0.0019 | 0.237 ± 0.023 | 0.381 ± 0.026 | 0.4425 ± 0.0022
19 | GLFAVWVVGVWC | 0.0437 ± 0.0013 | 0.137 ± 0.052 | 0.139 ± 0.031 | 0.219 ± 0.0058 | 0.0955 ± 0.013 | 0.111 ± 0.045 | 0.202 ± 0.011 | 0.212 ± 0.052
